Assay results reported in paper PMC6168863.

Biological target: SsaL-3Flag (Salmonella enterica serovar Typhimurium (strain 12023))
Assay: co-IP; Bacteria grown 6 h in MgM-MES at pH 5.0; lysate in PBS, 1 mM PMSF, 0.5% Triton X-100; SsaL-3Flag precipitated with anti-Flag M2 affinity agarose for 3 h at 4°C and eluted with 3Flag peptide; SsaV detected with anti-His antibody. Strains: wt background, ssaV^V632D, ΔssaP (with or without pssaP), and ΔssaU expressing SsaU^N262A

SsaV-6×His, sequence (P74856 whole entry): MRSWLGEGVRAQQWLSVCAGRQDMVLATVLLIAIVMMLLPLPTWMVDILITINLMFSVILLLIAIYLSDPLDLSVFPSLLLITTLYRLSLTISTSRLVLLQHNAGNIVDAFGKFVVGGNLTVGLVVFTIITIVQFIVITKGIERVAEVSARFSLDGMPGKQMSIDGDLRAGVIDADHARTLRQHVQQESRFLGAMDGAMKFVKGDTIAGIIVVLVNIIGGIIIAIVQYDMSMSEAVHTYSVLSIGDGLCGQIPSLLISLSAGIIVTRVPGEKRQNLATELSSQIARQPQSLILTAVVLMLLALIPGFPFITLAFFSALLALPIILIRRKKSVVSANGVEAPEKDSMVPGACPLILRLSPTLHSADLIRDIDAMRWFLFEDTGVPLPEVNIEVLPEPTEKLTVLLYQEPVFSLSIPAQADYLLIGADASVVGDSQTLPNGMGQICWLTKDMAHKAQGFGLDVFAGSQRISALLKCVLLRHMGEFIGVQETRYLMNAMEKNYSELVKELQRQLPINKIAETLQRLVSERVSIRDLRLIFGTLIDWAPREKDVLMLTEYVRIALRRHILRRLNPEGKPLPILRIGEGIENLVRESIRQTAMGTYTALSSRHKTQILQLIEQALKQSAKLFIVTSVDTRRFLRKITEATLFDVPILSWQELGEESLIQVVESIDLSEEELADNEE

With “SsaV-6×His (from UniProt P74856 1-681) (natural protein)” the percent decrease of SsaV-6×His co-immunoprecipitated with SsaL-3Flag in the absence of SsaP (ΔssaP) was 43.6% and the percent decrease of SsaV-6×His co-immunoprecipitated with SsaL-3Flag in the absence of normally cleaved SsaU (ΔssaU expressing SsaU^N262A) was 46.2%.
